According to the supplement of paper PMC12042874:
± gives the uncertainty stated by the source.

Experiment: amyloid nucleation score (Sup35N fusion, yeast selection) (log enrichment); library NNK2; higher = more nucleation; inactive = no reads after selection
Outline: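 Using DiMSum, nucleation scores were taken as the log enrichment of output over input reads, centred on the mode score of non-aggregating sequences. The input and output reads came from Illumina sequencing of plasmid inserts, with sequences under 100 input reads excluded. The yeast were psi-negative, expressed Sup35N fused to peptides of 20 random codons, were induced with 100 μM copper sulfate for 24 hours, and were grown 7 days at 30°C on medium lacking adenine and uracil.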

Substance | amyloid nucleation score
RLSRCL | 4.23 ± 0.055
RLSRYFLRFWWAYDYDSN | 0.101 ± 0.54
RLSSYILAIYSNRAKYF | 0.412 ± 0.5
RLSVAFRRVRDRYVLLIFLP | 0.548 ± 0.55
RLSVTLL | -0.157 ± 0.24
RLSWLLLKFNDQVWRLIGAG | 4.04 ± 0.054
RLVTWGISQNRLAQLY | -0.001 ± 0.33
RLVWWVIWIPSKCMGADKNW | -0.029 ± 0.8
RLYVTSYIY | 3.26 ± 0.098
RMCVWHMLVIGVRGKTGATR | 3.01 ± 0.11
RMDTGNLYVFLMKCFNMAYA | 5.2 ± 0.091
RMFVLLNRPNGLSCKGMFRG | 0.446 ± 0.64
RMKMDNIPFEIYVFTVTLLD | inactive
RMKVDTLIWTPDWMEFVSII | -0.824 ± 1.1
RMLLKLTHFALSVKGMQSRY | 0.417 ± 0.38
RMNSYKLSKVYNT | -0.225 ± 1
RMNYTTEIGHSGFSGNIWTG | -0.45 ± 0.78
RMPGWY | inactive
RMRLSYWHCISLGLVLLRPI | 0.298 ± 0.39
RMSVWNNECTWTSSVSVHPK | 2.37 ± 0.1
RNLGIHKSLFNSAYARAWAV | -0.771 ± 0.49
RNLYGHISVIFCGDNFDGSC | 7.15 ± 0.077
RNNRLTLVRVSFDVQCEPMV | 0.468 ± 0.46
RNPVTSIVQVHDKMGRRSKS | inactive
RNQNLLWNVSGIAFNKMRRK | 4.02 ± 0.093

Substance | amyloid nucleation score
RNSPVSLDVVSI | 0.046 ± 0.49
RPCQGLDTSVRCVLMMRYYR | 4.36 ± 0.046
RPLASSWAQY | 1.65 ± 0.21
RPPSIYC | -0.477 ± 0.49
RPRILYLLLFLYNHFLTSYK | -1.08 ± 1
RPSFKKYFAGSSDTNGSGVC | -0.513 ± 0.64
RQALVRILFSSSRIGGM | -0.857 ± 0.44
RQANFAQDPTSIVPVYMYLR | 2.35 ± 0.074
RQARSCIVGDGSWRGCLIKV | 1.11 ± 0.26
RQEFNCIASCRF | 2.12 ± 0.091
RQLAFFLIYPHGASVTYWAP | -0.956 ± 1.1
RQLLTKCLCASTGGFIFSWD | 0.792 ± 0.8
RQMMWRYEE | 0.3 ± 0.32
RQSIEISYLYISFGHKYR | 5.98 ± 0.083
RRCEGCN | -0.299 ± 1
RRDHHMPPITPGCFRLYWRI | 0.237 ± 1
RRGIASILGHYRGTKMTGFD | 0.135 ± 0.56
RRGNWKMSFFRMLTVNP | -0.488 ± 0.55
RRIINFQGHREEYGEMHTVM | -0.449 ± 0.64
RRISSKECLYRWGALWYIEI | 0.086 ± 0.61
RRNMVSWVSDDEQFSDKPLA | 0.121 ± 0.4
RRRPRGLEGFAERGLGDWTY | 1.36 ± 0.44
RRSNLGNWFDV | 0.285 ± 1
RRSWCLGFSRDLMSELKGIS | 1.4 ± 0.41
RRTIGASTEKYRLNNFLHVC | -0.661 ± 1.1

Substance | amyloid nucleation score
RRWTHKEPIKASLVRRFLRV | inactive
RSCYVYRN | inactive
RSGSQENKVSECAQDTTFSV | 0.367 ± 0.54
RSKSCSVVVRL | 0.813 ± 0.43
RSLLRFQ | 0.874 ± 0.14
RSLSSPSRKLKLTNLWI | -0.226 ± 1.1
RSLTCLSVKGNLTHTINVCY | 6.08 ± 0.069
RSLYVVFWIAGFEWGEIRVA | 0.822 ± 0.26
RSSLQSPWGYPKPMWLRSCA | 1.06 ± 0.33
RSSQTPFWEIGSMLLSKMCA | 0.65 ± 0.42
RSSRVEYSCLDGRMRELRGS | -0.443 ± 0.48
RSSWPTLKQGCSKSRQIWRA | 0.182 ± 0.3
RSTLDQRRFGNRF | 0.063 ± 1.1
RSVKDTPCLKLVLMKRDTLK | 0.092 ± 0.54
RSYLIKSLVSSLSARWIMMS | -0.03 ± 0.49
RTCDDA | 0.294 ± 0.8
RTCHGHYFLMM | 0.683 ± 0.74
RTDSGTMMCRVWAMYPESTS | 1.22 ± 0.41
RTDVFWNRMQRDSLFKPNAT | 0.192 ± 0.44
RTEMHYARQRHELDVPVWL | 0.25 ± 0.49
RTFLDIIGQTLLYVLVTVLA | 0.548 ± 0.46
RTGRRSAFCTSVRRLNPDCL | 1.17 ± 0.41
RTGSALAHCFCDMQYVAATI | inactive
RTHCSMSYQSRVVVDWLLQK | 4.18 ± 0.087
RTIAVSQWLASHGTVLVWPD | inactive

Substance | amyloid nucleation score
RTLYGALMIVWVS | 0.004 ± 1.1
RTNVWASDI | -0.32 ± 0.39
RTRDPRIFLSVCTGYTRRYY | -1.28 ± 0.76
RTRLS | 0.559 ± 0.21
RTRTYL | inactive
RTSFRNVMTIMTSPHVVTFI | -0.149 ± 0.4
RTSRVVIKILDPFQFVMLFI | -0.211 ± 0.49
RTTGTLLMRAESALPGRVVN | 5.762 ± 0.055
RTTWPHLVGSRILFYTSHSM | -0.392 ± 0.63
RTVDELTRRWWSKRRMGMSW | 2.03 ± 0.25
RTYILYSDFGCRRCDY | 3.56 ± 0.1
RVDCPYSGNVLTRVGNRCWA | 0.729 ± 0.25
RVGIH | 1.52 ± 0.22
RVIGVWILIAWQRQV | 0.822 ± 0.66
RVKYLDDCQYMLFRWCRMFT | 0.209 ± 0.29
RVLISQGLMYISHTMSG | 5.337 ± 0.044
RVMYGGCFHSRKRASVPYLY | -0.405 ± 0.76
RVNGLKSRVSRVRIGNVS | 0.224 ± 0.23
RVNSIAFI | -0.701 ± 0.56
RVPFFVGAG | -0.271 ± 0.74
RVRERIQIYLLLSGQDQFKM | 3.6 ± 0.14
RVRGSSVSISKLNKCKVVDT | 3.33 ± 0.091
RVSSYSQATKKLKHERFGDV | -0.533 ± 0.44
RVTHRQDCMNVLGSRDYFER | -0.574 ± 0.39
RVVCLLKGRWFALVLPDYCR | 0.479 ± 0.8

Substance | amyloid nucleation score
RVVRGWIAYFW | 0.374 ± 0.44
RWMILSFSLAWVSMSFENNM | 0.784 ± 0.18
RWYSTRCTVEFINATSIVRA | -0.531 ± 1.1
RWYYTRTF | -0.504 ± 1.1
RYFDDWVNSRTVKCGWDWYA | 0.641 ± 0.17
RYGERIFV | 0.627 ± 0.43
RYHDLGI | -0.093 ± 0.2
RYIIL | 0.728 ± 0.62
RYINQ | -0.481 ± 1.1
RYLSTLSVLYRTTSCRA | inactive
RYMCGRGHRCF | 3.04 ± 0.087
RYMKAG | -0.558 ± 0.54
RYNFYRLNLSRAVASDETCV | -0.854 ± 0.34
RYNTYML | -1.33 ± 0.36
RYPVDRLVMSKRCPALRDGG | 0.652 ± 0.23
RYSFSLMGFDSKGNKVGIMS | 3.65 ± 0.06
RYTLRGSGEWLVHDTLGVTD | 0.267 ± 0.5
RYVGRDR | inactive
RYWLLKFNCVLWEISFCRTM | 5.89 ± 0.07
RYYDLTNVVRPHYPCAHGDV | 7.333 ± 0.054
RYYGRPFRVLYRWSVREYYT | 4.395 ± 0.04
RYYVSEPLGDFAWFFPGDHR | inactive
SADDL | 0.972 ± 0.39
SAFLRIINACTATFHENSAR | inactive
SAFSFTSLSKYGLFSFCVVR | -0.274 ± 0.63

Substance | amyloid nucleation score
SAFSVSYTKSAFSARTVDIK | -0.948 ± 0.33
SAGFCFNNCFVFASGDYVNR | 7.493 ± 0.047
SAINIFGALAKCFMVMLALF | inactive
SAIRLMGG | 5.378 ± 0.048
SAPECNLAARVFYLLSPMGM | 0.13 ± 1.1
SAQWGREMVISARHRVPVEL | 4.92 ± 0.079
SAWQRIEWL | -0.339 ± 0.64
SCAHKELCQSVLRDVYWCTL | -0.224 ± 0.79
SCFPM | -1.67 ± 0.62
SCGIVRERFIVFELWSVCSG | -0.147 ± 0.42
SCHLLL | -0.891 ± 1.1
SCHVC | 5.854 ± 0.058
SCLLSL | 0.506 ± 0.45
SCLSGFTIWQVSLRYCASFG | 0.312 ± 0.38
SCPIRTL | 0.424 ± 0.43
SCRVME | 0.292 ± 0.2
SCSDMIKYHHTVELSLVSAT | 0.295 ± 1
SCSTYNDSSVYWFN | 2.04 ± 0.077
SCTDLLYDIDCIHSHECLLL | -0.397 ± 0.35
SCTWRRGFSSQVKYMNRQSI | 0.989 ± 0.13
SCYDVCPLCSHCRIGTKM | 1.92 ± 0.2
SCYRIWIMILVIGFSLNRRL | -0.208 ± 0.2
SDAIKWIYL | 0.335 ± 0.29
SDGLGSILIFGPPNY | -0.992 ± 0.3
SDIVNMGEVLVLGDSYWREG | -0.449 ± 0.63

Substance | amyloid nucleation score
SDLAWGERHLLEGLLVRPTT | 0.508 ± 0.29
SDMYM | -0.324 ± 1.1
SEFPIVQLCIAWDKLCKHLY | -0.179 ± 0.26
SELRTAKPVN | 0.635 ± 0.26
SEMGTVRRYCLRAYRVCVAY | 0.757 ± 0.57
SENFLYLDVVFMCHSMIDRG | 0.131 ± 0.54
SERFDRAY | -1.2 ± 0.42
SEVCNCVGLGSGCDVYGA | 3.17 ± 0.094
SEVGEGSPIDMTLARSGSVF | 0.913 ± 0.81
SEYVDFYGFLGLVFTLRRSA | 0.43 ± 0.64
SFAMSRHLQPGGNEQFRM | 1.16 ± 0.57
SFELFCVWGR | -0.827 ± 0.54
SFGMQTEMYPGSIGLV | inactive
SFIWKLYMLHWNWRSTEEGE | -0.17 ± 0.65
SFLKSMMAPIYKCSVWCSML | -0.819 ± 0.64
SFLTYKARTMSSKLVKSIML | -0.563 ± 0.76
SFMALYLSWFSQRDYAMAGS | 0.639 ± 0.46
SFNEMILHLIPRSCSLKKYI | -0.441 ± 0.28
SFNFEVEWRRASNLSFRWGR | 0.039 ± 0.61
SFNNTHVVPMYLFF | 5.402 ± 0.047
SFPRRMPSD | 2.38 ± 0.071
SFRDDICWVRWGSL | 0.251 ± 0.23
SFRDLDAAVEEV | -0.225 ± 0.48
SFRRSE | -0.388 ± 1
